{"source": "patent US10434088B2", "about": "“Methods related to administering immunosuppressants and therapeutic macromolecules at a reduced pharmacodynamically effective dose” (Selecta Biosciences, Inc., priority 2013, dated 2019)", "key": {"[1]": {"test_system": "anti-OVA antibody (Ab) response", "assay": "Example 2: anti-OVA antibody response to aggOVA", "assay_type": "in vivo, C57BL/6 mice", "conditions": "25 μg aggOVA i.v. d0, 14, 28 then boosts; nanocarriers i.v. (100 μg rapamycin) concomitantly d0, 14, 28 only; days 25, 40 and next 60 days; FIG. 3"}, "[2]": {"test_system": "anti-OVA IgG antibody response", "assay": "Example 9: anti-OVA IgG antibody titers", "assay_type": "in vivo, C57BL/6", "conditions": "2.5 μg pOVA i.v. weekly; 0.2 mg nanocarrier admixed days 0, 7, 14; FIG. 11", "description": "The control group of C57BL/6 age-matched (5-6 weeks) female were injected i.v. in the tail vein with 2.5 μg of an immunogenic form of particulate Ovalbumin (pOVA) and 2 μg of Keyhole Limpet Hemocyanin (KLH) s.c. in the hind limb once a week for 49 days (d0, 7, 14, 20, 28, 35, 42, 49)."}}, "data": [{"molecule": "aggOVA: chicken ovalbumin induced using high sheer to form aggregates to increase its immunogenicity (protein, UniProt P01012 2-386, looked up, shear-induced aggregates) Ovalbumin: GSIGAASMEFCFDVFKELKVHHANENIFYCPIAIMSALAMVYLGAKDSTRTQINKVVRFDKLPGFGDSIEAQCGTSVNVHSSLRDILNQITKPNDVYSFSLASRLYAEERYPILPEYLQCVKELYRGGLEPINFQTAADQARELINSWVESQTNGIIRNVLQPSSVDSQTAMVLVNAIVFKGLWEKAFKDEDTQAMPFRVTEQESKPVQMMYQIGLFRVASMASEKMKILELPFASGTMSMLVLLPDEVSGLEQLESIINFEKLTEWTSSNVMEERKIKVYLPRMKMEEKYNLTSVLMAMGITDVFSSSANLSGISSAESLKISQAVHAAHAEINEAGREVVGSAEAGVDAASVSEEFRADHPFLFCIKHIATNAVLFFGRCVSP", "values": [{"measurement": "anti-OVA antibody (IgG) response", "setting": "[1]", "result": "prominent anti-OVA antibody (Ab) response"}]}, {"molecule": "pOVA: immunogenic form of particulate Ovalbumin (protein, UniProt P01012 2-386, looked up, particulate form, immunogenic form of particulate Ovalbumin) Ovalbumin: GSIGAASMEFCFDVFKELKVHHANENIFYCPIAIMSALAMVYLGAKDSTRTQINKVVRFDKLPGFGDSIEAQCGTSVNVHSSLRDILNQITKPNDVYSFSLASRLYAEERYPILPEYLQCVKELYRGGLEPINFQTAADQARELINSWVESQTNGIIRNVLQPSSVDSQTAMVLVNAIVFKGLWEKAFKDEDTQAMPFRVTEQESKPVQMMYQIGLFRVASMASEKMKILELPFASGTMSMLVLLPDEVSGLEQLESIINFEKLTEWTSSNVMEERKIKVYLPRMKMEEKYNLTSVLMAMGITDVFSSSANLSGISSAESLKISQAVHAAHAEINEAGREVVGSAEAGVDAASVSEEFRADHPFLFCIKHIATNAVLFFGRCVSP", "values": [{"measurement": "anti-OVA IgG antibody titers at day 54", "setting": "[2]", "result": "robust immune response"}]}]}
